# ± gives the uncertainty stated by the source.
# Test: protein stability index of a GFP-peptide fusion (yeast GPS) (PSI 1-4); higher = more stable; sorted into four equal gates, so the index is relative within each strain
# Summary of the method: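 Tiled 17-residue peptides from yeast proteins were fused downstream of GFP on a plasmid that also expresses Cherry, and the pooled library was carried in yeast. Mid-log cultures grown in leucine-free medium were sorted into four equal gates by GFP/Cherry fluorescence ratio. Plasmids from each gate were PCR-amplified and Illumina-sequenced, and reads were assigned to strains by barcodes. Each peptide's protein stability index is the sum, over gates, of the gate's read frequency multiplied by its gate number.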
Sequence,protein stability index (doa10∆),protein stability index (pdr5∆),protein stability index (san1∆),protein stability index (ubr1∆)
QLKDMQTIEMITQIVEK [SRB8],2.87 ± 0.069,3.19 ± 0.075,2.94 ± 0.059,2.85 ± 0.056
IGLDTQQVEGKLSQMIL [RPN6],2.95 ± 0.066,3.05 ± 0.069,3.04 ± 0.071,3.06 ± 0.056
VLAQYHEAKERIRQKEV [SNF6],–,–,–,3.4 ± 0.18
MVGLASGNDSMAGKVLI [BRR2],3.24 ± 0.1,3.4 ± 0.092,3.21 ± 0.091,3.47 ± 0.058
ISVTRQVVLGGTSKYLI [SMC2],2.65 ± 0.074,2.96 ± 0.14,2.79 ± 0.068,2.73 ± 0.062
TIRYPDPNIKVNDTVKI [RPS4A],2.48 ± 0.09,2.87 ± 0.097,2.75 ± 0.1,2.71 ± 0.066
PQEETITFLIEKAKEMI [ECM29],3.03 ± 0.092,3.18 ± 0.13,2.95 ± 0.069,3.16 ± 0.075
LKKLEKEYELLTLQEDY [RPT3],2.37 ± 0.1,2.31 ± 0.13,2.6 ± 0.12,2.32 ± 0.052
AGQIPTGWNAKTYGISD [FAS2],1.68 ± 0.14,1.36 ± 0.12,1.66 ± 0.26,1.23 ± 0.09
LEEKKKRPNNKTLEKLE [IRR1],3.55 ± 0.14,3.43 ± 0.1,3.39 ± 0.092,3.27 ± 0.13
AYSMGAQNQGGQVSMSQ [PGD1],3.15 ± 0.095,3.2 ± 0.084,3.02 ± 0.094,3.22 ± 0.076
NVVGKLISIISSVIQNY [YML103C/NUP188],1.79 ± 0.073,1.44 ± 0.078,1.36 ± 0.13,1.51 ± 0.089
AKCNSLLQLKYFSNKTS [POP5],1.84 ± 0.076,2.09 ± 0.055,1.8 ± 0.1,2.2 ± 0.08
FLGALKYLPHAILKLLE [PRP8],2.12 ± 0.09,1.82 ± 0.061,2.55 ± 0.085,2.16 ± 0.039
NWRRLSGRNIHLAVVCV [SSN2],2.12 ± 0.085,1.58 ± 0.044,1.55 ± 0.078,2.86 ± 0.045
SFQKKSNDKVVEWINPS [ISW2],3.12 ± 0.069,3.39 ± 0.072,3.1 ± 0.12,3.19 ± 0.088
SVVHPGEMVGVLAAQSI [RPO21],1.29 ± 0.13,1.81 ± 0.089,–,1.26 ± 0.06
DYLKNIIVENSGTSGDE [RPN2],3.43 ± 0.21,3.48 ± 0.15,3.14 ± 0.057,3.29 ± 0.1
TVLADEFIAHRLGLIPL [RPB3],2.4 ± 0.087,2.16 ± 0.12,2.96 ± 0.047,3.12 ± 0.071
VTQQKRSLDENRLEIKY [SMC1],2.06 ± 0.064,2.15 ± 0.096,2.12 ± 0.16,2.08 ± 0.062
NYILNFKQSNSETFLQF [CDC53],2.57 ± 0.13,1.43 ± 0.1,1.77 ± 0.17,2.12 ± 0.11
PNTRDAESEAITVTAKQ [SWI3],3.08 ± 0.075,3.23 ± 0.056,3.17 ± 0.063,3.15 ± 0.05
MERLQRLMMNSKVGSAD [RPN11],3.28 ± 0.15,2.98 ± 0.17,3.42 ± 0.097,3.22 ± 0.12
DSAKEWPQSKNCEYEDP [RPB3],3.6 ± 0.19,3.13 ± 0.13,3.27 ± 0.14,3.27 ± 0.14
KEIDPSQTTQLAGMDVE [FAS2],3.14 ± 0.086,3.28 ± 0.11,3.15 ± 0.077,3.6 ± 0.069
CTQMTDEGLLNMVSLRG [GRR1],2.78 ± 0.1,2.66 ± 0.083,2.22 ± 0.088,2.02 ± 0.054

Sequence,protein stability index (doa10∆),protein stability index (pdr5∆),protein stability index (san1∆),protein stability index (ubr1∆)
VPPILIILPLDNATLTE [SSN2],2.97 ± 0.1,2.71 ± 0.11,2.58 ± 0.16,2.51 ± 0.087
TKLIQYEHNGRTLEAIT [CSL4],2.22 ± 0.049,2.48 ± 0.044,2.38 ± 0.055,2.29 ± 0.034
VRTSATFRLPKTLKLAR [RPL25],2.84 ± 0.1,2.35 ± 0.12,1.74 ± 0.26,2.72 ± 0.14
CLNCEKSKLFEWKSEFV [SNM1],2.61 ± 0.14,2.68 ± 0.13,2.97 ± 0.067,2.7 ± 0.12
TFSVYHESTSRTDQYTI [YMR129W/POM152],2.63 ± 0.15,2.64 ± 0.077,2.58 ± 0.098,2.62 ± 0.066
DVEVDDDFTNELKAELD [SEM1],3.25 ± 0.13,3.55 ± 0.11,3.54 ± 0.085,3.36 ± 0.056
TIRVVTENKIFVEVERA [RPN5],1.51 ± 0.18,1.94 ± 0.14,–,2.45 ± 0.27
DGDASKPAFSFGAKSDE [YJL041W/NSP1],3.32 ± 0.064,3.26 ± 0.053,3.15 ± 0.037,3.43 ± 0.044
EGKRIAFGFVDRTLPHF [RPO21],2.89 ± 0.058,2.98 ± 0.054,2.95 ± 0.048,3.13 ± 0.035
KKIENTMLENITLRGVE [RPO21],3.38 ± 0.12,2.79 ± 0.12,2.98 ± 0.07,3.09 ± 0.077
LVHDVVYDFYGRHVATC [YGL100W/SEH1],1.46 ± 0.074,1.69 ± 0.06,1.41 ± 0.12,1.38 ± 0.057
IKYEFNGIPLKSKERSS [YMR129W/POM152],2.39 ± 0.11,1.24 ± 0.057,1.52 ± 0.26,2.98 ± 0.16
LQESINHVMYTEVSRKS [ECM29],2.47 ± 0.054,2.74 ± 0.062,2.47 ± 0.077,2.51 ± 0.035
DELRKQELISKAFTNWN [ISW2],2.04 ± 0.065,2.45 ± 0.078,2.4 ± 0.089,2.23 ± 0.067
KIKDVQQQIESNEEQRN [SMC3],3.22 ± 0.091,3.17 ± 0.082,3.18 ± 0.076,2.85 ± 0.11
LQYLDKHIKNLEDDSLL [RPN12],3.44 ± 0.068,3.42 ± 0.081,3.35 ± 0.063,3.3 ± 0.049
DEGKEIPATIFDKVIYH [TAF14],3.13 ± 0.077,3.14 ± 0.059,3.15 ± 0.041,3.02 ± 0.056
MLRRHAAPPSTNFEILN [DIS3],1.87 ± 0.11,1.8 ± 0.1,1.71 ± 0.18,2.93 ± 0.074
PFHSHLLVPASDLINKD [FAS1],1.83 ± 0.03,2.15 ± 0.035,2.13 ± 0.048,1.96 ± 0.032
YNVENQQYVAAGDLRAL [FAS1],2.81 ± 0.11,2.83 ± 0.087,2.82 ± 0.13,2.85 ± 0.13
KRKSAQEPELSLDQGDA [SMC4],3.23 ± 0.1,3.19 ± 0.1,3.09 ± 0.17,3.39 ± 0.099
DPSLNLKLLAKSHVLLA [BRR2],2.02 ± 0.085,2.44 ± 0.1,1.79 ± 0.21,2.06 ± 0.15
LEATWNFIEPGINQILG [CDC53],2.95 ± 0.29,2.75 ± 0.27,3.38 ± 0.1,3.08 ± 0.12
VANSTKAAFIRVNGSEF [RPT3],1.92 ± 0.05,1.69 ± 0.044,1.66 ± 0.082,1.44 ± 0.034
VDAGIALNSMCASIPIA [RRP46],1.65 ± 0.12,1.63 ± 0.12,1.71 ± 0.15,1.66 ± 0.16
LNAANYNIDANVIDTQR [ECM29],–,2.37 ± 0.15,3.18 ± 0.12,2.85 ± 0.12

# From the supplement of paper PMC9732359
